How the values were obtained:
[1] = target: Cy5 labeled PDZ14 (engineered yeast SmF variant with a PDZ domain at its C-terminus, 14-mer) (Saccharomyces cerevisiae); experiment: fluorescence burst analysis of two-colour confocal trajectories
[2] = target: Cy5 labeled PDZ14 (engineered yeast SmF variant with a PDZ domain at its C-terminus, 14-mer) (Saccharomyces cerevisiae); experiment: dual-color fluorescence cross-correlation spectroscopy

Which results are given for “Alexa 488 labeled KKETPV14 (engineered yeast SmF variant with the short peptide KKETPV at its C-terminus, 14-mer)”?
stoichiometry N (KKETPV14:PDZ14) [1]: 0.99; stoichiometry N (KKETPV14:PDZ14) [2]: 1
